This note sets out measurements from paper PMC10397247.

Assay in all cases: two-hybrid library CCmax;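 note: natural log of median RNA to DNA barcode read ratio; higher means stronger binding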
One test deals with T1, 4H3969-AA.
T1 chain: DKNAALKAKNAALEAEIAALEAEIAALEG
The conditions noted are these: mean of both orientations.

The target of a further test is T2, 4H446-AA.
T2 chain: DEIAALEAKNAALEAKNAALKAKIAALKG
The conditions noted are these: mean of both orientations.

For the next test, the target named is T3, 4H3782-AA.
T3 chain: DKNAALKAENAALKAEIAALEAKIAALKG
The note with it: mean of both orientations.

Another test concerns the target T4, 4H483-AA.
T4 chain: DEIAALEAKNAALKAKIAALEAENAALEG
The conditions noted are these: mean of both orientations.

A further test has as its target T5, 4H464-AA.
T5 chain: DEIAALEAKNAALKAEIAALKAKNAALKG

A further test concerns the target T6, 4H3049-AA.
T6 chain: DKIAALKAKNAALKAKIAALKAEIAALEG
The note with it: mean of both orientations.

Another test deals with T7, 4H2961-AA.
T7 chain: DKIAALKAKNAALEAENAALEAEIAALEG
The note with it: mean of both orientations.

The next test has as its target T8, 4H63-AA.
T8 chain: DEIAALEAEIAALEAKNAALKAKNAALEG
The note with it: mean of both orientations.

In a further test the target is T9, 4H3629-AA.
T9 chain: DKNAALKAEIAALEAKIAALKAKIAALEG
The conditions noted are these: mean of both orientations.

The target in the next test is T10, 4H967-AA.
T10 chain: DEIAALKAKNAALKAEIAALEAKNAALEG
The conditions noted are these: mean of both orientations.

The next test deals with T11, 4H953-AA.
T11 chain: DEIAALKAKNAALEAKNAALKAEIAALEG
The conditions noted are these: mean of both orientations.

Another test addresses T12, 4H2553-AA.
T12 chain: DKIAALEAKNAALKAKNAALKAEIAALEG

For a further test, the target named is T13, 4H32-AA.
T13 chain: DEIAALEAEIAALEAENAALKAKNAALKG
The conditions noted are these: mean of both orientations.

The next test concerns the target T14, 4H2907-AA.
T14 chain: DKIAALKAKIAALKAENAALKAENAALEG
The note with it: mean of both orientations.

Another test deals with T15, 4H1454-AA.
T15 chain: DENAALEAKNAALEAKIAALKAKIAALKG
The conditions noted are these: mean of both orientations.

Another test addresses T16, 4H48-AA.
T16 chain: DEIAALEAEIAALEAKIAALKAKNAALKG
The note with it: mean of both orientations.

In a further test the target is T17, 4H605-AA.
T17 chain: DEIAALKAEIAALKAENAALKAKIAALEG
The conditions noted are these: mean of both orientations.

The target of the next test is T18, 4H2165-AA.
T18 chain: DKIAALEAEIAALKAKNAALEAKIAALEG

For the next test, the target named is T19, 4H3627-AA.
T19 chain: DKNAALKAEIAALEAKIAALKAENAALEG
The conditions noted are these: mean of both orientations.

A further test addresses T20, 4H780-AA.
T20 chain: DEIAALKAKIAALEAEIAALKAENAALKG
The conditions noted are these: mean of both orientations.

In a further test the target is T21, 4H993-AA.
T21 chain: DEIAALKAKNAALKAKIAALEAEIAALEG
The conditions noted are these: mean of both orientations.

The target in the next test is T22, 4H566-AA.
T22 chain: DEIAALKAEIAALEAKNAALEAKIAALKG
The note with it: mean of both orientations.

For a further test, the target named is T23, 4H2393-AA.
T23 chain: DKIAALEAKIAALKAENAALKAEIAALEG
The note with it: mean of both orientations.

In another test the target is T24, 4H794-AA.
T24 chain: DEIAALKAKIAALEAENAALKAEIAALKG
The note with it: mean of both orientations.

A further test addresses T25, 4H234-AA.
T25 chain: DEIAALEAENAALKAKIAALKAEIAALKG
The note with it: mean of both orientations.

The target of the next test is T26, 4H2622-AA.
T26 chain: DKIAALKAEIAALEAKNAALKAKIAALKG
The note with it: mean of both orientations.

The next test addresses T27, 4H4038-AA.
T27 chain: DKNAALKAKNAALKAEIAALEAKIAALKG
The note with it: mean of both orientations.

The target in a further test is T28, 4H2888-AA.
T28 chain: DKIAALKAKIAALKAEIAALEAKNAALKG
The note with it: mean of both orientations.

In another test the target is T29, 4H3905-AA.
T29 chain: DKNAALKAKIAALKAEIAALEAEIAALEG
The note with it: mean of both orientations.

A further test has as its target T30, 4H1351-AA.
T30 chain: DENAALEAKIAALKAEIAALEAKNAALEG
The conditions noted are these: mean of both orientations.

A further test has as its target T31, 4H1842-AA.
T31 chain: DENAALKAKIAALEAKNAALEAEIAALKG
The note with it: mean of both orientations.

In a further test the target is T32, 4H2109-AA.
T32 chain: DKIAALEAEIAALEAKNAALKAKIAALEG
The note with it: mean of both orientations.

The target in another test is T33, 4H1629-AA.
T33 chain: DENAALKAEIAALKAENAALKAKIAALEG
The note with it: mean of both orientations.

The next test addresses T34, 4H1867-AA.
T34 chain: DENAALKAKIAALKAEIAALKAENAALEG
The note with it: mean of both orientations.

The next test addresses T35, 4H2078-AA.
T35 chain: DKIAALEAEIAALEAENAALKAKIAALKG
The conditions noted are these: mean of both orientations.

Another test concerns the target T36, AP1-AA.
T36 chain: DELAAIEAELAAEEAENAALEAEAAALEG
The note with it: mean of both orientations.

The target in the next test is T37, P3-AA.
T37 chain: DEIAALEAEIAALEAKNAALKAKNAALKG
The conditions noted are these: mean of both orientations.

The target in a further test is T38, AP3-AA.
T38 chain: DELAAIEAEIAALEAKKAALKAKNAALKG
The note with it: mean of both orientations.

The next test addresses T39, AP5-AA.
T39 chain: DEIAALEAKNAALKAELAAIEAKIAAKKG
The note with it: mean of both orientations.

For another test, the target named is T40, P2-AA.
T40 chain: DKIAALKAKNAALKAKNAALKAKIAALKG
The note with it: mean of both orientations.

The next test concerns the target T41, P10-AA.
T41 chain: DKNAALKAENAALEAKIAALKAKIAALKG
The note with it: mean of both orientations.

The target in the next test is T42, P1-AA.
T42 chain: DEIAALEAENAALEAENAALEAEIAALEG
The note with it: mean of both orientations.

Read-outs that look alike come from different tables or passages of the source.

Regarding DEIAALEAENAALKAKNAALKAEIAALEG [4H249-AA], the interaction score with 4H3969-AA is -1.58; in the test with 4H446-AA it was -1.26; in the test with 4H3782-AA, 1.43; with 4H483-AA it was -1.76; with 4H464-AA (mean of both orientations) it was -1.77; with 4H3049-AA, -1.71. The interaction score in the test with 4H2961-AA is 1.36; with 4H63-AA, -1.75; with 4H3629-AA it was -1.69.

With DENAALKAKIAALEAKNAALEAKIAALEG [4H1845-AA], the interaction score with 4H3782-AA is -1.6; with 4H967-AA, -1.65; in the test with 4H953-AA it was -1.52; with 4H2553-AA (mean of both orientations), -1.84; in the test with 4H32-AA it was -1.5; with 4H2907-AA, -1.92.

DENAALEAEIAALEAKIAALEAKNAALKG [4H1064-AA]: the interaction score in the test with 4H3969-AA is -1.31; with 4H446-AA it was -1.26; with 4H3782-AA it was -0.855; with 4H483-AA it was -0.857; with 4H464-AA it was -1.84; with 4H3049-AA, 0.863. Further, the interaction score in the test with 4H2961-AA is -1.24; with 4H63-AA, -1.29; with 4H3629-AA, 0.654; with 4H1454-AA it was 0.729.

On to DKIAALEAEIAALKAKNAALEAKIAALEG [4H2165-AA], for which the interaction score in the test with 4H48-AA was -1.31; with 4H605-AA, -1.15; with 4H2165-AA, 1.41; with 4H3627-AA it was -1.58; in the test with 4H780-AA, -1.4; with 4H993-AA, 0.0167. Also, the interaction score in the test with 4H566-AA was 0.482; with 4H2393-AA, -0.392; with 4H794-AA, -1.31; with 4H234-AA, -1.27.

On to DENAALEAKIAALKAEIAALEAKIAALKG [4H1350-AA], for which the interaction score came to 1.12 with 4H2622-AA; 0.909 with 4H4038-AA; 2.21 with 4H2888-AA; 0.379 in the test with 4H3049-AA; 1.9 in the test with 4H3905-AA.

DENAALEAKIAALEAENAALKAKIAALKG [4H1310-AA]: the interaction score is -1.27 with 4H1351-AA; 0.334 with 4H1842-AA; 0.409 with 4H2109-AA; -1.34 with 4H2553-AA (mean of both orientations); -1.07 with 4H32-AA; 1.34 with 4H2907-AA. The same molecule showed an interaction score with 4H1629-AA of -0.348.

DENAALKAEIAALKAENAALKAEIAALKG [4H1626-AA]: the figures for the interaction score in the test with 4H1842-AA and with 4H2109-AA were -1.57 and -1.51, respectively.

In the case of DENAALEAKIAALKAKNAALKAEIAALEG [4H1401-AA], the interaction score with 4H48-AA is 0.338; with 4H605-AA, -1.38; in the test with 4H1867-AA, -1.22; in the test with 4H2165-AA (mean of both orientations), -1.62; in the test with 4H3627-AA, -1.38; with 4H2078-AA, 1.93. In addition, the interaction score with AP1-AA is -1.76; with 4H993-AA, -1.26; in the test with P3-AA, -1.1; with 4H2553-AA, -1.65; with AP3-AA it was -0.918; with 4H32-AA, 0.0762. In addition, the interaction score was 1.79 with 4H566-AA; -0.362 with AP5-AA; -1.43 in the test with 4H2393-AA; -1.76 in the test with P2-AA; -1.02 in the test with 4H794-AA; -0.931 with P10-AA. In addition, the interaction score in the test with 4H234-AA is 0.335; with P1-AA it was -0.911; with 4H2907-AA it was -1.63; with 4H1629-AA it was -1.08.

Regarding DKNAALKAEIAALEAENAALEAKIAALKG [4H3606-AA], the interaction score is -0.695 in the test with 4H48-AA; 0.159 with 4H605-AA; -1.29 with 4H3627-AA; -1.62 with AP1-AA; 1.33 with 4H993-AA; -0.421 with P3-AA. Also, the interaction score with AP3-AA is -1.06; with 4H566-AA, -0.683; in the test with AP5-AA, 2.26; with P2-AA, 0.917; with 4H794-AA it was -0.14; with P10-AA it was 0.12. The molecule also came in with an interaction score in the test with P1-AA of -1.64.

For the molecule DENAALEAKIAALKAKIAALKAEIAALEG [4H1385-AA], the interaction score with 4H1842-AA was -1.47; in the test with 4H2622-AA, 1.24; in the test with 4H2109-AA, 0.64; with 4H4038-AA it was 1.56; with 4H2888-AA it was 1.96; in the test with 4H3049-AA, -0.544. This molecule also returned an interaction score with 4H3905-AA of 2.31.

With DEIAALEAENAALEAKIAALKAENAALEG [4H171-AA], the figures for the interaction score in the test with 4H1842-AA, with 4H2109-AA and in the test with P10-AA were -1.26, -0.826 and -1.48, respectively.

On to DENAALEAENAALKAKIAALKAEIAALEG [4H1257-AA], for which the interaction score was 0.285 with 4H3969-AA; -1.65 with 4H446-AA; 2.21 in the test with 4H3782-AA; -1.91 with 4H483-AA; -1.07 with 4H464-AA (mean of both orientations); -0.389 with 4H967-AA. Further, the interaction score in the test with 4H953-AA is -1.45; with 4H3049-AA it was -0.309; in the test with 4H2961-AA it was -1.08; in the test with 4H63-AA, -1.72; with 4H3629-AA, 0.329; in the test with 4H1454-AA, -0.555.
